Experimental data as given in the supplement of paper PMC5998384.

Key:
HeLa Kyoto [1] = experiment: solubility change mitosis vs G1/S (difference of NP-40 vs SDS log2 ratios) (log2 ratio difference); higher = more soluble in mitosis
HeLa Kyoto [2] = experiment: solubility in G1/S (NP-40 vs SDS abundance) (log2 ratio); higher = more soluble; conditions: cell cycle stage: G1/S
HeLa Kyoto [3] = experiment: thermal stability score vs G1/S (z-score of summed log2 fold changes over temperatures); higher = more thermally stable than in G1/S
[4] = cell cycle stage: early G1 (4.5 h after nocodazole release)
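For solubility change mitosis vs G1/S (difference of NP-40 vs SDS log2 ratios) in this document: synchronized HeLa Kyoto cells (double thymidine block for G1/S, nocodazole release for mitosis), protein amounts in NP-40 versus SDS lysates quantified by mass spectrometry, three biological replicates.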
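For solubility in G1/S (NP-40 vs SDS abundance) in this document: HeLa Kyoto cells arrested at G1/S by double thymidine block, proteins quantified by TMT10plex mass spectrometry in mild NP-40 versus SDS extracts, three biological replicates.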
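For thermal stability score vs G1/S (z-score of summed log2 fold changes over temperatures) in this document: synchronized HeLa Kyoto cells, proteins quantified by TMT10plex mass spectrometry, three biological replicates, mitosis taken 0.5 h after nocodazole release, G1/S directly after double thymidine block.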

Substance	solubility change mitosis (log2) (HeLa Kyoto [1])	solubility in G1/S (log2) (HeLa Kyoto [2])	thermal stability score (HeLa Kyoto [3]; [4])	thermal stability score (HeLa Kyoto [3]; cell cycle stage: mitosis)
MEDPSEPDRLASADGGSPEEEEDGEREPLLPRIAWAHPRRGAPGSAVRLLDAAGEEGEAGDEELPLPPGDVGVSRSSSAELDRSRPAVSVTIGTSEMNAFLDDPEFADIMLRAEQAIEVGIFPERISQGSSGSYFVKDPKRKIIGVFKPKSEEPYGQLNPKWTKYVHKVCCPCCFGRGCLIPNQGYLSEAGAYLVDNKLHLSIVPKTKVVWLVSETFNYNAIDRAKSRGKKYALEKVPKVGRKFHRIGLPPKIGSFQLFVEGYKEAEYWLRKFEADPLPENIRKQFQSQFERLVILDYIIRNTDRGNDNWLVRYEKQKCEKEIDHKESKWIDDEEFLIKIAAIDNGLAFPFKHPDEWRAYPFHWAWLPQAKVPFSEEIRNLILPYISDMNFVQDLCEDLYELFKTDKGFDKATFESQMSVMRGQILNLTQALRDGKSPFQLVQIPCVIVERSQGGSQGRIVHLSNSFTQTVNCRKPFFSSW [PI4K2B]	-0.206	0.198	0.385	0.874
MAAPAPGAGAASGGAGCSGGGAGAGAGSGSGAAGAGGRLPSRVLELVFSYLELSELRSCALVCKHWYRCLHGDENSEVWRSLCARSLAEEALRTDILCNLPSYKAKIRAFQHAFSTNDCSRNVYIKKNGFTLHRNPIAQSTDGARTKIGFSEGRHAWEVWWEGPLGTVAVIGIATKRAPMQCQGYVALLGSDDQSWGWNLVDNNLLHNGEVNGSFPQCNNAPKYQIGERIRVILDMEDKTLAFERGYEFLGVAFRGLPKVCLYPAVSAVYGNTEVTLVYLGKPLDG [FBXO45]	-0.17	0.344	-0.0815	-0.292
MPV17L2	-0.154	-0.0909	-0.139	-0.811
MDWQPDEQGLQQVLQLLKDSQSPNTATQRIVQDKLKQLNQFPDFNNYLIFVLTRLKSEDEPTRSLSGLILKNNVKAHYQSFPPPVADFIKQECLNNIGDASSLIRATIGILITTIASKGELQMWPELLPQLCNLLNSEDYNTCEGAFGALQKICEDSSELLDSDALNRPLNIMIPKFLQFFKHCSPKIRSHAIACVNQFIMDRAQALMDNIDTFIEHLFALAVDDDPEVRKNVCRALVMLLEVRIDRLIPHMHSIIQYMLQRTQDHDENVALEACEFWLTLAEQPICKEVLASHLVQLIPILVNGMKYSEIDIILLKGDVEEDEAVPDSEQDIKPRFHKSRTVTLPHEAERPDGSEDAEDDDDDDALSDWNLRKCSAAALDVLANVFREELLPHLLPLLKGLLFHPEWVVKESGILVLGAIAEGCMQGMVPYLPELIPHLIQCLSDKKALVRSIACWTLSRYAHWVVSQPPDMHLKPLMTELLKRILDGNKRVQEAACSAFATLEEEACTELVPYLSYILDTLVFAFGKYQHKNLLILYDAIGTLADSVGHHLNQPEYIQKLMPPLIQKWNELKDEDKDLFPLLECLSSVATALQSGFLPYCEPVYQRCVTLVQKTLAQAMMYTQHPEQYEAPDKDFMIVALDLLSGLAEGLGGHVEQLVARSNIMTLLFQCMQDSMPEVRQSSFALLGDLTKACFIHVKPCIAEFMPILGTNLNPEFISVCNNATWAIGEICMQMGAEMQPYVQMVLNNLVEIINRPNTPKTLLENTGRLTSPSAIPAITIGRLGYVCPQEVAPMLQQFIRPWCTSLRNIRDNEEKDSAFRGICMMIGVNPGGVVQDFIFFCDAVASWVSPKDDLRDMFYKILHGFKDQVGEDNWQQFSEQFPPLLKERLAAFYGV [TNPO2]	-0.263	0.0053	-0.161	0.756
DISP1	-0.159	0.0363	-0.198	0.756
MIPVSLVVVVVGGWTVVYLTDLVLKSSVYFKHSYEDWLENNGLSISPFHIRWQTAVFNRAFYSWGRRKARMLYQWFNFGMVFGVIAMFSSFFLLGKTLMQTLAQMMADSPSSYSSSSSSSSSSSSSSSSSSSSSSSLHNEQVLQVVVPGINLPVNQLTYFFTAVLISGVVHEIGHGIAAIREQVRFNGFGIFLFIIYPGAFVDLFTTHLQLISPVQQLRIFCAGIWHNFVLALLGILALVLLPVILLPFYYTGVGVLITEVAEDSPAIGPRGLFVGDLVTHLQDCPVTNVQDWNECLDTIAYEPQIGYCISASTLQQLSFPVRAYKRLDGSTECCNNHSLTDVCFSYRNNFNKRLHTCLPARKAVEATQVCRTNKDCKKSSSSSFCIIPSLETHTRLIKVKHPPQIDMLYVGHPLHLHYTVSITSFIPRFNFLSIDLPVVVETFVKYLISLSGALAIVNAVPCFALDGQWILNSFLDATLTSVIGDNDVKDLIGFFILLGGSVLLAANVTLGLWMVTAR [MBTPS2]	-0.109	-0.23	-0.0953	-0.633
